{"source": "paper PMC9027224", "about": "(Diagnostics, 2022)", "key": {"[1]": {"set-up": "species or system human", "conditions": "in vivo, iv", "from_the_text": "Two peripheral intravenous catheters were placed, one for tracer injection and one in the contralateral arm for withdrawal of blood samples and administration of i.v. contrast agent. Electrocardiogram and vital signs as well as safety blood samples were monitored before and following [^68Ga]Ga-NODAGA-E[c(RGDyK)]2 injection. […] Furthermore, urine was collected for pharmacokinetic analysis and dosimetry in a subset of patients (Figure 1). The activity concentration of the urine and plasma was counted on Cobra II TM Gamma Counter (Packard, CT, USA). Blood and urine samples were analyzed on a Dionex UltiMate 3000 column-switching high-performance liquid chromatography (HPLC) system with a Posi-RAM Module 4 (ThermoFisher Scientific, Waltham, MA, USA). The full blood samples were centrifuged (3500 rpm, 4 min) and the supernatant plasma was collected and filtered through a […] syringe filter prior to the HPLC analysis. The HPLC analysis consisted of an extraction step and an analytical step, as previously described. During the extraction step, the plasma samples were passed through a shim-pack XR-ODS (30 × 4.6 mm, 2.2 μm). The valves were switched, and the sample was then analyzed on an Onyx monolithic column (C18, 50 × 4.6 mm). […]"}, "[2]": {"conditions": "human, in vivo", "from_the_text": "Two peripheral intravenous catheters were placed, one for tracer injection and one in the contralateral arm for withdrawal of blood samples and administration of i.v. contrast agent. Electrocardiogram and vital signs as well as safety blood samples were monitored before and following [^68Ga]Ga-NODAGA-E[c(RGDyK)]2 injection. […] Furthermore, urine was collected for pharmacokinetic analysis and dosimetry in a subset of patients (Figure 1)."}, "[3]": {"set-up": "species or system human", "conditions": "in vivo", "description": "Dosimetry was based on the decay-uncorrected image sets from the 3 time points (10 patients) supplemented with sampled urine data (7 patients). For each patient, organ, and time point, tissue activity concentration (kBq/mL) was determined in VOIs defined on CT. Activity (per patient, organ and time) was estimated by multiplying concentration values by organ masses of the OLINDA adult phantom, normalized per injected MBq and scaled for patient weight. Time integrated activity coefficients (TIAC, unit h) for each patient and organ was determined by numerical integration and analytical extrapolation to infinity assuming only physical decay. The resulting organ TIACs were averaged over patients. All data were entered into OLINDA/EXM 2.0 software (Vanderbilt University, TN, USA and HERMES Medical Solutions, Stockholm, Sweden).\nUrine was collected immediately after each scan in pre-weighted plastic bottles. The cumulated decay-corrected activity (MBq) of the excreted urine was plotted over time for all 7 subjects and data fitted to a one-phase exponential association. […] A detailed description of the dosimetry is available in Supplementary Material (Section S2).\ntestine, spleen, stomach contents, testes, thyroid, and upper large intestine. For each pa-\ntient, organ, and time-point, tissue activity concentration (kBq/mL) was calculated as the\naverage of the mean values from 3 VOIs. Total activity (per patient, organ and time) was\nestimated by multiplying these average values by organ masses of the OLINDA male\nadult phantom. Activity values were normalized to 1MBq by dividing with injected\nactivity and scaled with the ratio of actual patient weight to the weight of the standard\nmodel (73 kg). As a surrogate for red marrow activity, VOIs were drawn encompassing\nlarge portions of the L3–L5 vertebrae. Time integrated activity coefficients (TIAC, for-\nmerly known as residence time; unit h) for each patient and organ was determined by nu-\nmerical integration up to the third (last) data point and analytical extrapolation to infinity\nassuming only physical decay. Piecewise linearity was assumed from time zero up to the\nsecond data point and a mono-exponential was used between the second and third data\npoints. The resulting organ TIACs were averaged over patients. All data were entered into\nOLINDA/EXM 2.0 software (Vanderbilt Universi ty, and HERMES Medical Solutions).\nUrine was collected immediately after each scan in pre-weighted plastic bottles and\nfor each individual voiding the weight (volume) was measured and a 500 μL sample was\ndrawn for activity measurement in a calibrated gamma well counter (Cobra II TM,\nGamma Counting Systems; PACKARD, Meriden, CT, USA).The cumulated decay cor-\nrected activity (in MBq) of the excreted urine, normalized to 1 MBq of injection, was plot-\nted over time (in Excel) for all 7 subjects and data fitted to a one phase exponential asso-\nciation (exponential growing towards a limit). The resulting limit and half-life were used\nas input to the bladder voiding model of OLINDA, yielding the TIAC for bladder con-\ntents. In concordance with the actual setup a bladder voiding interval of 1 hour was se-\nThe value for “remainder tissue” was calculated as the total area (in h) for 1 MBq\nminus the sum of the organ-specific values (except bladder) minus the value passed to\nurine (based on the fitted model parameters). The fraction of the latter that is attributed to\nthe bladder depends on the voiding interval.\nThe output from OLINDA consists of absorbed doses for organs and effective dose\nwith weight factors according to ICRP 103 [3]. […]\n3. The 2007 Recommendations of the International Commission on Radiological Protection. ICRP publication 103. Ann ICRP"}, "integrin subtype αvβ3": {"target": "integrin subtype αvβ3", "conditions": "in vitro; unlabelled NODAGA-E[c(RGDyK)]2; ref Bentsen et al., unpublished data; read-out: affinity (KD); cited from earlier work", "from_the_text": "A large number of PET tracers with the RGD motif have been developed and tested preclinically. However, only a few have reached testing in clinical trials, and none have yet been employed for routine clinical use. The clinical translation of first-generation integrin-targeting PET tracers with ^18F, e.g., ^18F-Galacto-RGD, was hampered by complex radiochemistry. Thus, several approaches to optimize the production and tracer stability as well as tumor-binding properties have been investigated. Addressing the need for assessing integrin αvβ3, our group evaluated a number of PET tracers uti ..."}, "[4]": {"conditions": "in vivo; cited from earlier work", "from_the_text": "(§1) A secondary objective of our study was to assess [^68Ga]Ga-NODAGA-E[c(RGDyK)]2 uptake in tumors."}, "[5]": {"tested_on": "head and neck squamous cell carcinoma", "conditions": "10 patients with head and neck squamous cell carcinoma; cited from earlier work", "from_the_text": "as §1"}}, "note": "Read-outs that look alike come from different tables or passages of the source."}
{"molecule": "N=C(N)NCCC[C@@H]1NC(=O)[C@H](CCCCNC(=O)CC[C@H](NC(=O)CCC(C(=O)O)N2CCN(CC(=O)O)CCN(CC(=O)O)CC2)C(=O)NCCCC[C@@H]2NC(=O)[C@@H](Cc3ccc(O)cc3)NC(=O)[C@H](CC(=O)O)NC(=O)CNC(=O)[C@H](CCCNC(=N)N)NC2=O)NC(=O)[C@@H](Cc2ccc(O)cc2)NC(=O)[C@H](CC(=O)O)NC(=O)CNC1=O", "note": "(stereo partly drawn) [[^68Ga]Ga-NODAGA-E[c(RGDyK)]2, metal not drawn]", "values": [{"measurement": "plasma half-life", "setting": "[1]; human", "result": 8.6, "unit": "min"}, {"measurement": "plasma metabolites by reversed-phase HPLC", "setting": "[1]", "result": "two unknown polar metabolites"}, {"measurement": "acute or long-term effects on blood parameters or organ function", "setting": "[2]", "result": "No acute or long-term effects"}, {"measurement": "changes in vital signs, laboratory studies or electrocardiograms", "setting": "[2]", "result": "No significant changes"}, {"measurement": "Mean Absorbed Dose, Adrenals", "setting": "[3]", "result": 0.0245, "unit": "mGy/MBq"}, {"measurement": "Mean Absorbed Dose, Brain", "setting": "[3]", "result": 0.00252, "unit": "mGy/MBq"}, {"measurement": "Mean Absorbed Dose, Breasts", "setting": "[3]", "result": 0.0105, "unit": "mGy/MBq"}, {"measurement": "Mean Absorbed Dose, Esophagus", "setting": "[3]", "result": 0.0112, "unit": "mGy/MBq"}, {"measurement": "Mean Absorbed Dose, Eyes", "setting": "[3]", "result": 0.00929, "unit": "mGy/MBq"}, {"measurement": "Mean Absorbed Dose, Gallbladder Wall", "setting": "[3]", "result": 0.0143, "unit": "mGy/MBq"}, {"measurement": "Mean Absorbed Dose, Heart Wall", "setting": "[3]", "result": 0.0146, "unit": "mGy/MBq"}, {"measurement": "Mean Absorbed Dose, Kidneys", "setting": "[3]", "result": 0.0627, "unit": "mGy/MBq"}, {"measurement": "Mean Absorbed Dose, Left Colon", "setting": "[3]", "result": 0.0136, "unit": "mGy/MBq"}, {"measurement": "Mean Absorbed Dose, Liver", "setting": "[3]", "result": 0.0279, "unit": "mGy/MBq"}, {"measurement": "Mean Absorbed Dose, Lungs", "setting": "[3]", "result": 0.00792, "unit": "mGy/MBq"}, {"measurement": "Mean Absorbed Dose, Osteogenic Cells", "setting": "[3]", "result": 0.0136, "unit": "mGy/MBq"}, {"measurement": "Mean Absorbed Dose, Ovaries", "setting": "[3]", "result": 0.0154, "unit": "mGy/MBq"}, {"measurement": "Mean Absorbed Dose, Pancreas", "setting": "[3]", "result": 0.0144, "unit": "mGy/MBq"}, {"measurement": "Mean Absorbed Dose, Prostate", "setting": "[3]", "result": 0.0133, "unit": "mGy/MBq"}, {"measurement": "Mean Absorbed Dose, Rectum", "setting": "[3]", "result": 0.0151, "unit": "mGy/MBq"}, {"measurement": "Mean Absorbed Dose, Red Marrow", "setting": "[3]", "result": 0.015, "unit": "mGy/MBq"}, {"measurement": "Mean Absorbed Dose, Right Colon", "setting": "[3]", "result": 0.0131, "unit": "mGy/MBq"}, {"measurement": "Mean Absorbed Dose, Salivary Glands", "setting": "[3]", "result": 0.00996, "unit": "mGy/MBq"}, {"measurement": "Mean Absorbed Dose, Small Intestine", "setting": "[3]", "result": 0.0603, "unit": "mGy/MBq"}, {"measurement": "Mean Absorbed Dose, Spleen", "setting": "[3]", "result": 0.0504, "unit": "mGy/MBq"}, {"measurement": "Mean Absorbed Dose, Stomach Wall", "setting": "[3]", "result": 0.0263, "unit": "mGy/MBq"}, {"measurement": "Mean Absorbed Dose, Testes", "setting": "[3]", "result": 0.0192, "unit": "mGy/MBq"}, {"measurement": "Mean Absorbed Dose, Thymus", "setting": "[3]", "result": 0.011, "unit": "mGy/MBq"}, {"measurement": "Mean Absorbed Dose, Thyroid", "setting": "[3]", "result": 0.0663, "unit": "mGy/MBq"}, {"measurement": "Mean Absorbed Dose, Total Body", "setting": "[3]", "result": 0.0133, "unit": "mGy/MBq"}, {"measurement": "Mean Absorbed Dose, Urinary Bladder Wall", "setting": "[3]", "result": 0.126, "unit": "mGy/MBq"}, {"measurement": "Mean Absorbed Dose, Uterus", "setting": "[3]", "result": 0.018, "unit": "mGy/MBq"}, {"measurement": "effective dose", "setting": "[3]", "result": 0.0218, "unit": "mSv/MBq"}, {"measurement": "effective dose (radiation exposure) at injected activity of 200 MBq", "setting": "[3]", "result": 4.4, "unit": "mSv"}, {"measurement": "kidney radiation", "setting": "[3]", "result": 0.063, "unit": "mGy/MBq"}, {"measurement": "radiation dose, kidneys", "setting": "[3]", "result": 0.063, "unit": "mSv/MBq"}, {"measurement": "radiation dose, thyroid", "setting": "[3]", "result": 0.066, "unit": "mSv/MBq"}, {"measurement": "radiation dose, urinary bladder wall", "setting": "[3]", "result": 0.126, "unit": "mSv/MBq"}]}
{"molecule": "NODAGA-E[c(RGDyK)]2 (head to tail) [unlabelled precursor of the tracer, obtained as acetate from ABX GmbH]", "values": [{"measurement": "Kd", "setting": "integrin subtype αvβ3", "result": 0.075, "unit": "nM"}]}
{"molecule": "[^68Ga]Ga-NODAGA-RGDyK [monomeric RGD PET tracer]", "values": [{"measurement": "effective dose", "setting": "[4]", "result": 19.8, "unit": "µSv/MBq"}, {"measurement": "kidney radiation", "setting": "[4]", "result": 0.046, "unit": "mGy/MBq"}, {"measurement": "mean SUVmax in the primary tumor", "setting": "[5]", "result": "3.9 ± 1.1"}]}
